Common to all, as to experiment: fluorescence polarisation; 100 nM BODIPY-FL-labeled EcSufE titrated with EcSufS; 50 mM Mops pH 8.0, 150 mM NaCl, 0.1 mg/ml bovine serum albumin, 25 °C, 30 min; absence of cysteine; apparent KD
Holding throughout (details): both partners purified

In assay [1] the target is T1, Y345A EcSufS, C-terminal his-tagged (Escherichia coli, UniProt P77444 1-406, Y345A, PLP (pyridoxal 5'-phosphate) cofactor).
T1 construct: EcSufS of Escherichia coli, UniProt P77444, with Y345A; also called Y345A SufS; source: E. coli BL21(DE3)Δsuf, pET44, autoinduction, purified (Ni2+ HisTrap HP); not shown: His tag, C-terminal, kept
T1 sequence: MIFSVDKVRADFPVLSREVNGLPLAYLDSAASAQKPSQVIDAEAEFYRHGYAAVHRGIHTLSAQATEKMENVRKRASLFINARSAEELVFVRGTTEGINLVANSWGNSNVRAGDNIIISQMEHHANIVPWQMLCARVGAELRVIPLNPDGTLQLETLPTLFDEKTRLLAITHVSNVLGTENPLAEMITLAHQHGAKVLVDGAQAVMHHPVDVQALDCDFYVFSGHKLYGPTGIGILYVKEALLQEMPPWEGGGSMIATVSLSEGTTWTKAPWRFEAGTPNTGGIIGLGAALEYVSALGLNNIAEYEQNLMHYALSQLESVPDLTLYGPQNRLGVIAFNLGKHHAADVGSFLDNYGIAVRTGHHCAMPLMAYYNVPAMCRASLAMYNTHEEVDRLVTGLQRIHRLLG

Assay [2] deals with T2, S349A EcSufS, C-terminal his-tagged (Escherichia coli, UniProt P77444 1-406, S349A, PLP (pyridoxal 5'-phosphate) cofactor).
T2 construct: EcSufS of Escherichia coli, UniProt P77444, with S349A; also called S349A SufS; source: E. coli BL21(DE3)Δsuf, pET44, autoinduction, purified (Ni2+ HisTrap HP); not shown: His tag, C-terminal, kept
T2 sequence: T1 sequence with A345Y, S349A

In assay [3] the target is T3, N353A EcSufS, C-terminal his-tagged (Escherichia coli, UniProt P77444 1-406, N353A, PLP (pyridoxal 5'-phosphate) cofactor).
T3 construct: EcSufS of Escherichia coli, UniProt P77444, with N353A; also called N353A SufS; source: E. coli BL21(DE3)Δsuf, pET44, autoinduction, purified (Ni2+ HisTrap HP); not shown: His tag, C-terminal, kept
T3 sequence: T1 sequence with A345Y, N353A

The target in assay [4] is T4, Y354A EcSufS, C-terminal his-tagged (Escherichia coli, UniProt P77444 1-406, Y354A, PLP (pyridoxal 5'-phosphate) cofactor).
T4 construct: EcSufS of Escherichia coli, UniProt P77444, with Y354A; also called Y354A SufS; source: E. coli BL21(DE3)Δsuf, pET44, autoinduction, purified (Ni2+ HisTrap HP); not shown: His tag, C-terminal, kept
T4 sequence: T1 sequence with A345Y, Y354A

Substitutions are numbered along the chain they refer to. Numbers in names are those of the source. Bounds are passed on as bounds.

Our source for the Kd values is PMC11408855, “The structure of the SufS–SufE complex reveals interactions driving protected persulfide transfer in iron-sulfur cluster biogenesis” (The Journal of Biological Chemistry, 2024).

B1: BODIPY-FL-labeled C51A/E107C EcSufE (natural protein, Escherichia coli)
chain: MALLPDKEKLLRNFLRCANWEEKYLYIIELGQRLPELRDEDRSPQNSIQGAQSQVWIVMRQNAQGIIELQGDSDAAIVKGLIAVVFILYDQMTPQDIVNFDVRPWFCKMALTQHLTPSRSQGLEAMIRAIRAKAAALS
modifications: BODIPY-FL maleimide label (labeling efficiency 60 to 80%)
notes: EcSufE, transpersulfurase SufE of Escherichia coli, UniProt P76194, with C51A and E107C; also called "WT" EcSufE (double mutant background); C51A/E107C EcSufE control
B1: the Kd in assay [1] was above 20 µM; in assay [2], 2.2 µM; in assay [3] it was 0.06 µM; in assay [4] it was above 20 µM.
